Measured values reported in patent US7005283B2, “Cytochrome P450 oxygenases and their uses” (Washington State University Research Foundation, priority 1999, dated 2006).

B1: clone F9: Taxus cuspidata cytochrome P450 oxygenase, full-length clone, SEQ ID NO: 48 (nt) / 61 (aa) (protein, listed as Taxus cuspidata)
chain: MDSFNFLRGIGADFGGFIQFQSSPAVLSLSLITTILGVLLLWFFLHKNGSSVTLPPGNLGFPFIGETIPFLRALRSETPQTFFDERVKKFGVVFKTRIVGHPTVVLCGPEGNRFLLSNEDKLVQASLPNSSEKLIGKYSILSKRGEEHRILRAALARFLRPQALQGYVAKMSSEIQHHIKQKWKGNDEVKVLPLIRTLIFNIASSLFFGINDEHQQEQLHHLLEAIVLGSLSVPLDFPGTRFRKALDARSKLDEILSSLMESRRRDLRLGTASENQDLLSVLLTFKDERGNPLTDKEIFDNFSFMLHASYDTTVSPTGLMLKLLFSSPDCYEKLVQEQLGIVGNKKEGEEISWNDLKAMKYTCKVVQESMRMLPPVFGSYRKAXTYIHYDGYTIPKGWNIFWSPYTTHGKEEYFNEADKFMPSRFEEGKYVAPYTFLPFGAGLRVCPGWEFAKTEILLFVHHFITTFSSYIPIDPKDKISGDPFPPLPTNGFSMKLFTRS
modifications: not fully specified; (1)..(500) “Xaa” equals any peptide
B2: clone F7: Taxus cuspidata cytochrome P450 oxygenase, full-length clone, SEQ ID NO: 83 (nt) / 89 (aa) (protein, listed as Taxus cuspidata)
chain: MDSFTFVTIKMGKIWQVIQVEYILSLTLTAILLFFFRYRNKSSHKLPPGNLGFPFIGETIQFLRSLRSQTPEFFFDERVKKFGPVFKTSLIGAPTVIFCGAAGSRLVLSNEDKLVQMESPSSLKKLMGENSILYKREEEHRILRSALSRFLGPQALQTYIAKMSTEIERHINEKWKGKEEVKTLPLIRGLVFSIASSLFFDINDEPQQERLHHHLESLVAGSMAVRLDFPGTRFRKAVEARSKLDEALHSLIKSRRSDLLSGKASSNQDLLSVLLSFKDERGNPLRDEEILDNFSLILHASYDTTISPMVLTLKLLSSNPECYDKVVQEQFGILANKKEGEEISWKDLKAMKYTWQVVQETLRMFPPLFGSFRKAMVDINYDGYTIPKGWIVLWTTYSTHVKEEYFNEPGKFRPSRFEHDGRHVAPYTFLPFGGGLRTCPGWEFSKTEILLFIHHFVKTFGSYLPVDPNEKISADPFPPLPANGFSIKLFPRS
B3: clone F12: Taxus cuspidata cytochrome P450 oxygenase, full-length clone, SEQ ID NO: 43 (nt) / 56 (aa) (protein, listed as Taxus cuspidata)
chain: MDTFIQHESSPLLLSLTLAVILGTILLLILSGKQYRSSRKLPPGNMGFPLIGETIALISDTPRKFIDDRVKKFGLVFKTSLIGHPAVVICGSSANRFLLSNEEKLVRMSLPNAVLKLLGQDCVMGKTGVEHGIVRTALARALGPQALQNYVAKMSSEIEHHINQKWKGKDEVKVLPLIRSLVFSISTSLFFGINDEHQQKRLHHLLETVAMGLVSIPLDFPGTRFRKALYARSKLDEIMSSVIERRRSDLRSGAASSDQDLLSVLVTFKDERGNSFADKEILDNFSFLLHALYDTTISPLTLIFKLLSSSPECYENIAQEQLEILGNKKDREEISWKDLKDMKYTWQAVQETLRMFPPVYGYIREALTDIDYDGYTIPKGWRILCSPHTTHSKEEYFDEPEEFRPSRFEDQGRHVAPYTFIPFGGGLRICAGWEFAKMEILLFMHHFVKTFSHFIPVDPNEKISRDPLPPIPVKGFSIKPFPRS
B4: clone F51: Taxus cuspidata cytochrome P450 oxygenase, full-length clone, SEQ ID NO: 47 (nt) / 60 (aa) (protein, listed as Taxus cuspidata)
chain: MDTIRASFGEVIQPEYSPLIISXALAAFLGIVIFSIFSSTRRSYVNLPPGNLGLPFIGETIQFLGALQSEKPHTFFDERVKKFGKVFKTSLIGDPTVVLCGPAGNRLVLSNEDKLVQSAGPKSFLKLFGEDSVAAKREESHRILRSALGRFLGPHALQNYIGKMNSEMQRHFDDKWKGKDEVKVLPLVRGLIFSIATSLFFNINDDRQREQLHGLLDTILVGSMTIPLNIPGTLFRKAVKARAKLDEILFALIENRRRELRSGLNSGNQDLLSSLLTFKDEKGNPLTDKEILDNFSVMLHASYDTTVSPTVLILKLLASNPECYEKVVQEQLGILASKKEGEEVNWKDLKAMPYTWQAIQEPLXMPXQLLECFEELSLIFSWKAIQFQKDGQLCGXLIVNGREEFFNEPDKFKPSRFEEGKPLDPYTFIPFGAGVRICAGWEFAKAELLLFVHPFVKNFSGCIIIDPNEKISGDPFPPLPTSGQLMKLIPRS
modifications: not fully specified; (1)..(492) “Xaa” equals any peptide
B5: clone F82: Taxus cuspidata cytochrome P450 oxygenase, full-length clone, SEQ ID NO: 81 (nt) / 87 (aa) (protein, listed as Taxus cuspidata)
chain: MDAFNVLMGPLAKFDNFMQLGSYSENLSVTITVTAIAVITLLLVLIRSKPQSCVNLPPGKLGYPFIGETLQLLQAFRSNRPQQFFDERQKKFGSVFKTSLIGDRTVVLCGPSGNRLLLSNENKLVEASWPSSSIKLIGEDSIAGKNGEKHRILRAAVNRYLGPGALQNYMAKMRSEIEHHMNEKWKGKEQVKVLPLVKENVFSIATSLFFGVNDDGERERLHDLLETALAGVFSIPLDFPGTNYRKALEARLKLDKVLSSLIERRRSDLRSGVASGNEDLLSVWLTFKDEEGNPLTDKEILDNFSTLLHASYDTTTSALTLTLKLMSSSTECYHKVVQEQLRIVSNKKEGEEISLKDLKDMKYTWQVVQETLRMFPPLFGSFRKAITDIHYDGYTIPKGWKVLWTTYSTHGREEYFNEPEKFMPSRFEEEGRHVAPYTFLPFGAGVRTCPGWEFSKTQILLFLHYFVKTFSGYIPLDPDEKVLGNPVPPLPANGFAIKLFPRPSFDQGSPME
B6: clone F72: Taxus cuspidata cytochrome P450 oxygenase, full-length clone, SEQ ID NO: 54 (nt) / 67 (aa) (protein, listed as Taxus cuspidata)
chain: MDVFYPLKSTVAKFNECFPAILFIVLSAVAGIVLPLLLFLRSKRRSSVGLPPGKLGYPFIGESLLFLKALRSNTVEQFLDERVKNFGNVFKTSLIGHPTVVLCGPAGNRLILANEEKLVQMSWPKSSMKLMGEKSITAKRGEGHMIIRSALQGFFSPGALQKYIGQMSKTIENHINEKWKGNDQVSVVALVGDLVFDISACLFFNINEKHERERLFELLEIIAVGVLAVPVDLPGFAYHRALQARSKLNAILSGLIEKRKMDLSSGLATSNQDLLSVFLTFKDDRGNPCSDEEILDNFSGLLHGSYDTTVSAMACVFKLLSSNPECYEKVVQEQLGILSNKLEGDEITWKDVKSMKYTWQVVQETLRLYPSIFGSFRQAITDIHYNGYIIPKGWKLLWTPYTTHPKEMYFSEPEKFLPSRFDQEGKLVAPYTFLPFGGGQRSCPGWEFSKMEILLSVHHFVKTFSTFTPVDPAEIIARDSLCPLPSNGFSVKLFPRSYSLHTGNQVKKI

What was measured:
[1] = format: binding, Saccharomyces cerevisiae
Source text: CO-sensor of the 19 full-length cytochrome P450 clones from Taxus, thus far obtained, ten have yielded detectable CO-difference spectra (Table 2). […] These alternative expression systems for cytochrome P450 genes include the yeast Pichia pastoris, for which expression vectors and hosts are commercially available (Invitrogen, Carlsbad, Calif.), as well as established E. coli and baculovirus-insect cell systems for which general expression procedures have been described (Barnes, Methods Enzymol. 272:1–14, 1996;Gonzalez et al., Methods Enzymol. 206:93–99, 1991;Lee et al., Methods Enzymol. 272:86–98, 1996;and Lupien et al., Arch. Biochem. Biophys. 368:181–192, 1999).
Appropriate restriction sites were introduced by standard PCR methods (Innis et al., PCR Protocols: A Guide to Methods and Applications, Academic Press, San Diego, Calif., 1990) immediately upstream of the ATG start codon and downstream of the stop codon of all full-length cytochrome P450 clones. These modified amplicons were gel-purified, digested with the corresponding restriction enzymes, and then ligated into the expression vector pYeDP60. The vector/insert junctions were sequenced to ensure that no errors had been introduced by the PCR construction. Verified clones were transformed into yeast using the lithium acetate method (Ito et al., J. Bacteriol. 153:163–168, 1983). Isolated transformants were grown to stationary phase in SGI medium (Pompon et al., Methods Enzymol. 272:51–64, 1996), and used as inocula for a large-scale expression culture grown in YPL medium (Pompon et al., Methods Enzymol. 272:51–64, 1996). Approximately 24 hours after induction of cytochrome P450 expression with galactose (to 10% final concentration), a portion of the yeast cell culture was harvested by centrifugation. One-half of the culture was treated with carbon monoxide, and the cytochrome P450 CO-difference spectrum was recorded directly (using untreated cells as a control) by spectrophotometry (Omura and Sato, J. Biol. Chem. 239:2370–2378, 1964).

[2] = In vivo assay of yeast cells expressing recombinant oxygenases, radio-HPLC, substrate taxadiene; format: cell-based, Saccharomyces cerevisiae; conditions: assayed with Taxadiene; graded symbols, key not given
Source text: (§1) Transformed yeast cells that fimctionally express a recombinant cytochrome P450 gene from Taxus (by CO-difference spectrum) can be tested in vivo for their ability to oxygenate (hydroxylate or epoxidize) taxoid substrates fed exogenously to the cells, thereby eliminating the need for microsome isolation for preliminary in vitro assays.
(§2) Accordingly, several clones of the available full-length clones were expressed in induced yeast host cells.
(§3) Isolated transformants for each full-length cytochrome P450 clone shown to express a functional enzyme by CO-difference spectrum (ten clones) were grown to stationary phase in 2 mL SGI medium at 30° C. and used to inoculate a 10-mL expression culture (in YPL medium). Approximately 8 hours after induction, cells were harvested by centrifugation (10 minutes at 1500 rpm), and the pellet was resuspended in 2 mL of fresh YPL medium.
(§4) To eliminate additional complication and uncertainty associated with microsome isolations for in vitro assays, 10^6 dpm of [20-^3H3]taxa-4(5),11(12)-diene (16 Ci/mol) or [20-^3H2]taxa-4(20),11(12)-diene-5-α-ol (4.0 Ci/mol), or other taxoid substrate were added directly to the cell suspension to assay conversion in vivo. After 12 hours of incubation at 30° C. with agitation (250 rpm), the mixture was treated for 15 minutes in a sonication bath and extracted 3 times with 2 mL diethyl ether to insure isolation of the biosynthetic products. These ether extracts, containing residual substrate and derived product(s), were concentrated to dryness, resuspended in 200 μL of CH3CN, and filtered. These samples were analyzed by radio-HPLC (Hefner et al., Chemistry and Biology 3:479–489, 1996) using a 4.6 mm i.d.×250 mm column of Econosil C18, 5 μ (Alltech, Deerfield, Ill.) with a gradient of CH3CN in H2O from 0% to 85% (10 minutes at 1 mL/minute), then to 100% CH3CN over 40 minutes.

[3] = In vivo assay of yeast cells expressing recombinant oxygenases, radio-HPLC, substrate taxadien-5α-ol; format: cell-based, Saccharomyces cerevisiae; conditions: yeast transformants, radio-HPLC and GC-MS
Source text: as §1, §2, §3, §4

| Molecule | CO diff. spec. [1] | product identified HPLC peak [2] | product formed from taxadien-5α-ol [3] |
| --- | --- | --- | --- |
| B1 | + | No | more polar products |
| B2 | − | No |  |
| B3 | + | No | more polar products |
| B4 | + | No | diol products |
| B5 | − | No |  |
| B6 | + | No |  |
